Consider 41 variants from the RNAGym collection of RNA variant scans (doi:10.7554/elife.90254).

The chains are these.
B1: OR4K15 (parent)
chain: GUUAACGGUCAUAGGCCAUGGAAACUAGGAGCACCAUUUCGCUGCCAGUGAAGAAAUGAACAAAGAAAAUCUGGGCCAGGCAGGCAUCAAAAGAAAUAGUCUUGCGCUCAACCAGAAAGUCUGUAAUCAUUUUAAGGGUA

Variants of B1 are the subject of this series. Nature of the series: self-cleavage, relative activity (ratio to wild type); higher = more cleavage; in vitro, sequencing; the parent is a self-cleaving ribozyme.
Regarding GUUAACGGUCAUAGGCCAUGGAAACUAGGAGCACCAUUUCGCUGCCAGUGAAGAAAUGAACAAAGAAAAUCUGGGCCAGGCAGGCAUCAAAAGAAAUAGUCUUGCGCUCAACCAGAAUGUCUGUAAACAUUUUAAGGGUA [A118U U127A], the self-cleavage amounted to 0.97.

For the variant GUUAACGGUCAUAGGCCAUGGAAACUAGGAGCACCAUUUCGCUGCCAGUGAAGAAAUGAACAAAGAAAAUCUGGGCCAGGCAGGCAUCAAAAGAAAUAGUCUUGCGCUCAACCAGUGAGUCUGUAAUCAUUUUAAGGGUA [A116U A117G], the self-cleavage turned out to be 0.15.

As to GUUAACGGUCAUAAGCCAUGGAAACUAGGAGCACCAUUUCGCUGCCAGUGAAGAAAUGAACAAAGAAAAUCUGGGCCAGGCAGGCAUCAAAAGAAAUAGUCUUGCGCUCAGCCAGAAAGUCUGUAAUCAUUUUAAGGGUA [G14A A111G], the self-cleavage was 0.01.

On to GUUAACGGUCAUAGGCCAUGGAAACUAGGAGCACCAUCUCGCUGCCAGUGAAGAAAUGAACAAAGAAAAUCUGGGCCAGGCAGGCAUCAAAAGAAAUAGUCUUGCGCUCAACCAGAAAGUCUGUAAUCUUUUUAAGGGUA [U38C A129U], for which the self-cleavage is 1.21.

Consider GUUAACGGUCAUAGGCCAUGGAAACUAGGGGCACCAUUUCGCUGCCAGUGUAGAAAUGAACAAAGAAAAUCUGGGCCAGGCAGGCAUCAAAAGAAAUAGUCUUGCGCUCAACCAGAAAGUCUGUAAUCAUUUUAAGGGUA [A30G A51U], for which the self-cleavage is 1.46.

GUUAACGGUCAUAGGCCAUGGAAACUAGGAGCGCCAUUUCGCUGCCAGUGAAGAAAUGAACAAAGAAAAUCUGGGCCAGGCAGGCAUCAAAAGAGAUAGUCUUGCGCUCAACCAGAAAGUCUGUAAUCAUUUUAAGGGUA [A33G A95G]: the self-cleavage turned out to be 1.48.

Take GUUAACGGUCAUAGGCCAUGGAAACUAGGAGCACCAUUUCGCUGCCAGUGAAGAAAUGAACGAAGAAAAUCUGGGCCAGGCAGGCAUCAAUAGAAAUAGUCUUGCGCUCAACCAGAAAGUCUGUAAUCAUUUUAAGGGUA [A62G A91U]: the self-cleavage was determined as 1.61.

Take GUUAACGGUCAUAGGCCAUGGAAACUAGGAGCACCAUUUCGCUGCCAGUGAAGAAAUGAACAAAGAAAAUCUGGGCCAGGCAGGCAUCCAAAGAAAUAGUCUUGCGCUCAACCAGGAAGUCUGUAAUCAUUUUAAGGGUA [A89C A116G]: the self-cleavage worked out at 0.19.

With GUUAACGGUCAUAGGCCAUGGAAACUAGGAGCACCAUUUCGCUGCCAGUGAAGAAAUGGACAAAGAAAAUCUGGGCCAGGCAGGCAUCAAAAGAAAUAGUCUUGCGCCCAACCAGAAAGUCUGUAAUCAUUUUAAGGGUA [A59G U108C], the self-cleavage came out at 0.02.

Regarding GUUAACGGUCAUAGGCCAUGGAAACUAGGAGCACCAUUUCGCUGCCAGUGUAGAAAUGAACAAAGAAGAUCUGGGCCAGGCAGGCAUCAAAAGAAAUAGUCUUGCGCUCAACCAGAAAGUCUGUAAUCAUUUUAAGGGUA [A51U A68G], the self-cleavage is 1.24.

GUUAACGGUCAUAGGCCAUGGAAACUAGGAGCACCAUUUCGCUGCCAGUGAAGAAAUGAACAAAGAAAAUCUGGGCCAGGCAGGCAUCAAAAGAAAUAGUCUUGCGCUCAACCAGAAAGUCUGUAAACAUUUCAAGGGUA [U127A U133C]: the self-cleavage was 2.29.

GUUAACGGUCAUAGGCCAUGGAAACUAGGAGCACCAUUUCGCUGCCAGUGAAGAAAUGAACAAAGAAAAUCUGGGCCAGGCAGGCAUCGAAAGAAAUAGUCUGGCGCUCAACCAGAAAGUCUGUAAUCAUUUUAAGGGUA [A89G U103G]: the self-cleavage came out at 0.02.

Consider GUUAACGGUCAUAGGCCAUGGAAACUAGGAGCACCAUUUCGCUGCCAGUGAAGAAAUGAACAAAGAAAAUCUGGGCCAGGCAGGCAUCAAAAGAAAUAGUCUUGCGCUCAACCAGGCAGUCUGUAAUCAUUUUAAGGGUA [A116G A117C], for which the self-cleavage worked out at 0.1.

Take GUUAACGGUCAUAGGCCAUGGAAACUAGGAGCACCAUUUCGCUGCCAGUGAAGAAAUGAACAAAGAAAAUCUGGGCCAGGCAGGCAUCAAAAGAAAUAGUCUUGCGCUCAACCAGAAAGUCUGUAAUCAAUUUAAGGGUA [U130A]: the self-cleavage came out at 0.92.

Regarding GUUAACGGUCAUAGGCCAUGGAAACUAGGAGCACCAUUUCGCUGCCAGUGAAGAAAUGAACAAAGAAAAUCUGGGCCAGGCAGGCAUCAAUAGAAAUAGUCUUGCGCUCAACCAGAAGGUCUGUAAUCAUUUUAAGGGUA [A91U A118G], the self-cleavage came out at 0.94.

Consider GUUAACGGUCAUAGGCCAUGGAAACUAGGAGCACCAUUUCGCUGCCAGUGAAGAAAUGAACAAAGAAAAUCUGGGCCAGGCAGGCAUCAAAAGAAAUAGUCUUGCGCUUAACCAGAAAGUCUGUAAUCAUUUCAAGGGUA [C109U U133C], for which the self-cleavage was 0.37.

Consider GUUAACGGUCAUAGGCCAUGGGAACUAGGAGCACCAUUUCGCUGCCAGUGAAGAAAUGAACAAAGUAAAUCUGGGCCAGGCAGGCAUCAAAAGAAAUAGUCUUGCGCUCAACCAGAAAGUCUGUAAUCAUUUUAAGGGUA [A22G A66U], for which the self-cleavage was 1.41.

Turning to GCUAACGGUCAUAGGCCAUGGAAACUAGGAGCACCAUUUCGCUGCCAGUGAAGAAAUGAACAAAGAAAAUCUGGGCCAGGCAGGCAUCAAAAGAAAUAGUCUUGCGCUCAACCAGAAAGUCUGUAAUCAUUUUAUGGGUA [U2C A135U], the self-cleavage worked out at 0.5.

As to GUUAACGGUCAUAGGCCAUGGAAACUAGGAGCACCAUUUCGCUGCCAGUGAAGAAAUGAACAAAGAAAAUCUGGGCCAGGCAGGCAUCAAAAGAAAUAGUCUAGCGCUCAACCAGAAAGUCUGCAAUCAUUUUAAGGGUA [U103A U124C], the self-cleavage came to 0.07.

Turning to GUUAACGGUCGUAGGCCAUGGAAACUAGGAGCACCAUUUCGCUGCCAGUGAAGAAAUGAACAAAGAGAAUCUGGGCCAGGCAGGCAUCAAAAGAAAUAGUCUUGCGCUCAACCAGAAAGUCUGUAAUCAUUUUAAGGGUA [A11G A67G], the self-cleavage amounted to 0.74.

Consider GUUGACGGUCAUAGGCCAUGGAAACUAGGAGCACCAUUUCGCUGCCAGUGAAGGAAUGAACAAAGAAAAUCUGGGCCAGGCAGGCAUCAAAAGAAAUAGUCUUGCGCUCAACCAGAAAGUCUGUAAUCAUUUUAAGGGUA [A4G A54G], for which the self-cleavage came to 0.55.

GUUAACGGUCAUAGGCCAUGGAAACUAGGAGCACCAUUUCGCUGCCAGUGAAGAAAUGAACAAAGAAAAUCUGGGCCAGGCAGGCAUCAAAAGAAAUAGUCUUGCGCUCAACUAGAAAGUCUGUAAUCAUUUUAAGGGUG [C113U A140G]: the self-cleavage is 0.12.

Regarding GUUAACGGUCAUAGGCCACGGAAACUAGGAGCACCAUUUCGCUGCCAGUGAGGAAAUGAACAAAGAAAAUCUGGGCCAGGCAGGCAUCAAAAGAAAUAGUCUUGCGCUCAACCAGAAAGUCUGUAAUCAUUUUAAGGGUA [U19C A52G], the self-cleavage amounted to 1.35.

For the variant GUUAACGGUCAUAGACCAUGGAAACUAGGAGCACCAUUUCGCUGCCAGUGAAGAAAUGAACAAAGAAAAUCUGGGCCAGGCAGGCAUCAAAAGAAAUAGUCUUGCGCUCAACCAGAAAGCCUGUAAUCAUUUUAAGGGUA [G15A U120C], the self-cleavage stood at 1.01.

With GUUAACGGUCAUAGGCCAUGGAAACUAGGAGCACCAUUUCGCUGCCAGUGAAGAAAUGAACAAAGAAAAUCUGGGCCAGGCAGGCAUCAAGAGAAAUAGUCUUGCGCUCAGCCAGAAAGUCUGUAAUCAUUUUAAGGGUA [A91G A111G], the self-cleavage turned out to be 0.01.

Regarding GUUAACGGUCAUAGGCCAUGGAAACUAGGAGCACCAUUUCGCUGCCAGUGAAGAAAUGGACAAAGAAAAUCUGGGCCAGGCAGGCAUCAAAAGAAAUAGUCUUGCGCUCAACCCGAAAGUCUGUAAUCAUUUUAAGGGUA [A59G A114C], the self-cleavage was 0.03.

With GUUAACGGUCAUAGGCCAUGGAAACUAGGAGCACCUUUUCGCUGCCAGUGAAGAAAUGAACAAAGAAAAUCUGGGCCAGGCAGGCAUCAAAAGAAAUAGUCUUGCGCUCAACCAGAAAGUCUGUAAUCAUUUUAAGGGUG [A36U A140G], the self-cleavage was 2.09.

For the variant GUUAACGGUCAUAGGCCAAGGAAACUAGGAGCACCAUUUCGCUGCCAGUGAAGAAAUGAACAAAGAAAAUCUGGGCCAGGCAGGCAUCAAAAGAAAUAGUCUUGCGCUCAACCAGAAAGUCUGUAAUCGUUUUAAGGGUA [U19A A129G], the self-cleavage was found to be 0.05.

Turning to GUUAACGGUCAUAGGCCAUGGAAACUAGGAGCACCAUUUCGCUGCCAGUGAAGAAAUGAACAGAGAAAAUCUGGGCCAGGCAGGCAUCAAUAGAAAUAGUCUUGCGCUCAACCAGAAAGUCUGUAAUCAUUUUAAGGGUA [A63G A91U], the self-cleavage is 2.36.

Take GUUAACGGUCAUAGGUCAUGGAAACUAGGAGCACCAUUUCGCUGCCAGUGAAGGAAUGAACAAAGAAAAUCUGGGCCAGGCAGGCAUCAAAAGAAAUAGUCUUGCGCUCAACCAGAAAGUCUGUAAUCAUUUUAAGGGUA [C16U A54G]: the self-cleavage was found to be 0.87.

On to GUUAACGGUCAUAGGCCAUGGAAACUAGGAGCACCAUUUCGCUGCCAGUGAAGAAGUGAACAAAGAAAAUCUGGGCCAGGCAGGCAUCAAAAGAAACAGUCUUGCGCUCAACCAGAAAGUCUGUAAUCAUUUUAAGGGUA [A56G U97C], for which the self-cleavage was 0.4.

In the case of GUUAACGGUCAUAGGCCACGGAAACUAGGAGCACCAUUUCGCUGCCAGUGAAGAAAUGAACAAAGAAAAUCUGGGCCAGGCAGGCAUCAAAAGAAAUAGUCUUGCGCUCAACAAGAAAGUCUGUAAUCAUUUUAAGGGUA [U19C C113A], the self-cleavage worked out at 0.

As to GUUAACGGUCAUAGGCCAUGGAAACUAGGAGCACCAUUUCACUGCCAGUGAAGAAAUGAACAAAGAAAAUCUGGGCCAGGCAGGCAUCAAAAGAAAUAGUCUCGCGCUCAACCAGAAAGUCUGUAAUCAUUUUAAGGGUA [G41A U103C], the self-cleavage was found to be 1.76.

For the variant GUUAACGGUCAUAGGCCAUGGAAACUAGGAGCACCAUUUAGCUGCCAGUGAAGAAAUGAACAAAGAAAAUCUGGGCCAGGCAGGCAUCAAAAGAGAUAGUCUUGCGCUCAACCAGAAAGUCUGUAAUCAUUUUAAGGGUA [C40A A95G], the self-cleavage was found to be 2.53.

As for GUUAACGGUCAUAGGCCAUGGAAACUAGGAGCACCAUUUCGCUGCCAGUGAAGAAAUGAACAAAGAAAAUCUGGGCCAGGCAGGCAUCAAAAGAAAUAGUCUUGCGCUCAACCAGAAGGUCUGUAAUCAUUAUAAGGGUA [A118G U132A], the self-cleavage stood at 1.11.

With GCUAACGGUCAUAGGCCAUGGAAACUAGGAGCACCAUUUCGCUGCCAGUGAAGAAAUGAACAAAGAAAAUCUGGGCCAGGCAGGCAUCAAAAGAAAUAGUCUUGCGCUCAACCAGAGAGUCUGUAAUCAUUUUAAGGGUA [U2C A117G], the self-cleavage amounted to 1.33.

On to GUUAACGGUCAUAGGCCAUGGAAACUAGGAGCACCAUUUCGCUGCCAGUGAAGAAAUGAACAAAGAAAAUCUGGGCCAGGCAGGCAUCAAAAGAAAUAGUCUAGCGCUCAACCAGAAAGUCUGUAAUCAUUUCAAGGGUA [U103A U133C], for which the self-cleavage was 0.61.

GUUAACGGUCAUAGGCCAUGGAAACUAGGGGCACCAUUUCGCUGCCAGUGAAGAAAUGAACAAAGAAAAUCUGGGCCAGGCAGGCAUCAAAAGAAAUAGUCUUGCGCUCAACCAGAAAAUCUGUAAUCAUUUUAAGGGUA [A30G G119A]: the self-cleavage stood at 2.01.

Regarding GUUAACGGUCAUAGGCCAUGGAAACUAGGAGCACCAUUUCGCUGCCAGCGAAGAAAUGAACAAAGAAAAUCUGGGCCAGGCAGGCAUCAAGAGAAAUAGUCUUGCGCUCAACCAGAAAGUCUGUAAUCAUUUUAAGGGUA [U49C A91G], the self-cleavage came out at 0.77.

For GUUAACGGUCAUAGGCCAUGGAAACUAGGAGCACCAUUACGCUGCCAUUGAAGAAAUGAACAAAGAAAAUCUGGGCCAGGCAGGCAUCAAAAGAAAUAGUCUUGCGCUCAACCAGAAAGUCUGUAAUCAUUUUAAGGGUA [U39A G48U], the self-cleavage stood at 1.24.

Consider GCUAACGGUCAUAGGCCAUGGAAACUAGGAGCACCAUUUCGCUGCCGGUGAAGAAAUGAACAAAGAAAAUCUGGGCCAGGCAGGCAUCAAAAGAAAUAGUCUUGCGCUCAACCAGAAAGUCUGUAAUCAUUUUAAGGGUA [U2C A47G], for which the self-cleavage turned out to be 1.28.
